In PMC10786891, “Massively parallel profiling of RNA-targeting CRISPR-Cas13d”:

T1: EsCas13d, nuclease-dead (Eubacterium siraeum, UniProt B0MS50, R295A;H300A;R849A;H854A)
T1 sequence: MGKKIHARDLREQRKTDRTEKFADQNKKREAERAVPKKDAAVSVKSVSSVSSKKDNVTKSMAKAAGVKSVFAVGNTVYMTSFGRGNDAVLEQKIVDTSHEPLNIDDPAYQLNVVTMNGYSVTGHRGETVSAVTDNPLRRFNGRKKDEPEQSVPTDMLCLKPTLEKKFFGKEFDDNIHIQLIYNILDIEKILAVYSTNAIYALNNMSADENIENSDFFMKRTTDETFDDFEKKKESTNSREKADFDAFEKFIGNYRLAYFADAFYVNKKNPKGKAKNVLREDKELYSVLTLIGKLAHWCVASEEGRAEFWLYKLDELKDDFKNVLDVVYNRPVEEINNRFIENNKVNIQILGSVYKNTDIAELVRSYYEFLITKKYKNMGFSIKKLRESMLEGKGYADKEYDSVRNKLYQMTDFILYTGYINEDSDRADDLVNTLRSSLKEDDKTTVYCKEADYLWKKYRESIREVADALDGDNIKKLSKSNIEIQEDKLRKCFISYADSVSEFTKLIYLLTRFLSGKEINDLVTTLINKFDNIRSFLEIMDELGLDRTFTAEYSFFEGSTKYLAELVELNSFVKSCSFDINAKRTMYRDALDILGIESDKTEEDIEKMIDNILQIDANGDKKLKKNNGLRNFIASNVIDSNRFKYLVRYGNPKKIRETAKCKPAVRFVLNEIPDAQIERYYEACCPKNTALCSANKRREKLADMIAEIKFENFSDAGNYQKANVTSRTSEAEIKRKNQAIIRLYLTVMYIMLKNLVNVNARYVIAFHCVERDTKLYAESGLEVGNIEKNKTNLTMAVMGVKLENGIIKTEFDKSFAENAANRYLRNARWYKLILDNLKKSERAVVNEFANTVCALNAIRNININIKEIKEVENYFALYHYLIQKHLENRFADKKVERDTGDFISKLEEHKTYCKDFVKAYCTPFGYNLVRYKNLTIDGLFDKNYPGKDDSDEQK


target: T1, EsCas13d, nuclease-dead; assay: crRNA (strand 1, pre-loaded); Mg2+; 40 mM Tris-HCl pH 7.5, 150 mM NaCl, 6 mM MgCl2, 1 mM DTT, 0.1% Tween-20, 0.2 mg/ml BSA; 25 C; 10 min per concentration, then washed; conditions: tags: His6-TwinStrep-SUMO cleaved; N-terminal SNAP kept (SNAP-Surface 488); label: 3' end held by stalled T7 RNA polymerase

| Binder | Kd |
| --- | --- |
| target 1 C7G,G12A (mixed) RNA 1: CACCCGUGCAAAAAUGCAGGGGUCUAAAACUGAGCGGAUAACCUCUCUAUGG RNA 2: GGGAAUGGAUCCACAUCUACGAAUUCGUACCAUAGAGAGAUUAUGCGCUCACCGAGAUCGGAAGAGCACACGU | 15.4 ± 1.3 nM |
| target 1 U19C,C22G (mixed) RNA 1: CACCCGUGCAAAAAUGCAGGGGUCUAAAACUGAGCGGAUAACCUCUCUAUGG RNA 2: GGGAAUGGAUCCACAUCUACGAAUUCGUAGCACAGAGAGGUUAUCCGCUCACCGAGAUCGGAAGAGCACACGU | ~80 nM |
| target 1 insC 3' of 13,insU 3' of 2 (mixed) RNA 1: CACCCGUGCAAAAAUGCAGGGGUCUAAAACUGAGCGGAUAACCUCUCUAUGG RNA 2: GGGAAUGGAUCCACAUCUACGAAUUCGUACCAUAGAGAGCGUUAUCCGCUCUACCGAGAUCGGAAGAGCACACGU | 14.4 ± 1.3 nM |
| target 1 insG 3' of 16,insG 3' of 14 (mixed) RNA 1: CACCCGUGCAAAAAUGCAGGGGUCUAAAACUGAGCGGAUAACCUCUCUAUGG RNA 2: GGGAAUGGAUCCACAUCUACGAAUUCGUACCAUAGAGGAGGGUUAUCCGCUCACCGAGAUCGGAAGAGCACACGU | 15.6 ± 1.3 nM |
| target 1 insA 3' of 21,insG 3' of 7 (mixed) RNA 1: CACCCGUGCAAAAAUGCAGGGGUCUAAAACUGAGCGGAUAACCUCUCUAUGG RNA 2: GGGAAUGGAUCCACAUCUACGAAUUCGUACCAAUAGAGAGGUUAUCGCGCUCACCGAGAUCGGAAGAGCACACGU | 14.9 ± 0.6 nM |
| target 1 insG 3' of 16,insC 3' of 10 (mixed) RNA 1: CACCCGUGCAAAAAUGCAGGGGUCUAAAACUGAGCGGAUAACCUCUCUAUGG RNA 2: GGGAAUGGAUCCACAUCUACGAAUUCGUACCAUAGAGGAGGUUCAUCCGCUCACCGAGAUCGGAAGAGCACACGU | 40 ± 9 nM |
| target 1 insA 3' of 22,insA 3' of 5 (mixed) RNA 1: CACCCGUGCAAAAAUGCAGGGGUCUAAAACUGAGCGGAUAACCUCUCUAUGG RNA 2: GGGAAUGGAUCCACAUCUACGAAUUCGUACACAUAGAGAGGUUAUCCGACUCACCGAGAUCGGAAGAGCACACGU | 7.2 ± 0.6 nM |
| target 1 G5U,G17U (mixed) RNA 1: CACCCGUGCAAAAAUGCAGGGGUCUAAAACUGAGCGGAUAACCUCUCUAUGG RNA 2: GGGAAUGGAUCCACAUCUACGAAUUCGUACCAUAUAGAGGUUAUCCUCUCACCGAGAUCGGAAGAGCACACGU | 62 ± 8 nM |
| target 1 U8A,U10A (mixed) RNA 1: CACCCGUGCAAAAAUGCAGGGGUCUAAAACUGAGCGGAUAACCUCUCUAUGG RNA 2: GGGAAUGGAUCCACAUCUACGAAUUCGUACCAUAGAGAGGUAAACCGCUCACCGAGAUCGGAAGAGCACACGU | 12.5 ± 0.7 nM |
| target 1 insU 3' of 20,insC 3' of 5 (mixed) RNA 1: CACCCGUGCAAAAAUGCAGGGGUCUAAAACUGAGCGGAUAACCUCUCUAUGG RNA 2: GGGAAUGGAUCCACAUCUACGAAUUCGUACCAUUAGAGAGGUUAUCCGCCUCACCGAGAUCGGAAGAGCACACGU | 36 ± 10 nM |
| target 1 insA 3' of 22,insG 3' of 21 (mixed) RNA 1: CACCCGUGCAAAAAUGCAGGGGUCUAAAACUGAGCGGAUAACCUCUCUAUGG RNA 2: GGGAAUGGAUCCACAUCUACGAAUUCGUACACGAUAGAGAGGUUAUCCGCUCACCGAGAUCGGAAGAGCACACGU | 43 ± 6 nM |
| target 1 C7U,A9C (mixed) RNA 1: CACCCGUGCAAAAAUGCAGGGGUCUAAAACUGAGCGGAUAACCUCUCUAUGG RNA 2: GGGAAUGGAUCCACAUCUACGAAUUCGUACCAUAGAGAGGUUCUUCGCUCACCGAGAUCGGAAGAGCACACGU | 8.9 ± 0.4 nM |
| target 1 insC 3' of 17,insG 3' of 9 (mixed) RNA 1: CACCCGUGCAAAAAUGCAGGGGUCUAAAACUGAGCGGAUAACCUCUCUAUGG RNA 2: GGGAAUGGAUCCACAUCUACGAAUUCGUACCAUAGCAGAGGUUAGUCCGCUCACCGAGAUCGGAAGAGCACACGU | 35 ± 6 nM |
| target 1 C4U,G5A (mixed) RNA 1: CACCCGUGCAAAAAUGCAGGGGUCUAAAACUGAGCGGAUAACCUCUCUAUGG RNA 2: GGGAAUGGAUCCACAUCUACGAAUUCGUACCAUAGAGAGGUUAUCCAUUCACCGAGAUCGGAAGAGCACACGU | 14.2 ± 1.5 nM |
| target 1 insA 3' of 15,insC 3' of 15 (mixed) RNA 1: CACCCGUGCAAAAAUGCAGGGGUCUAAAACUGAGCGGAUAACCUCUCUAUGG RNA 2: GGGAAUGGAUCCACAUCUACGAAUUCGUACCAUAGAGACAGGUUAUCCGCUCACCGAGAUCGGAAGAGCACACGU | 20.4 ± 1.6 nM |
| target 1 U8A,U10G (mixed) RNA 1: CACCCGUGCAAAAAUGCAGGGGUCUAAAACUGAGCGGAUAACCUCUCUAUGG RNA 2: GGGAAUGGAUCCACAUCUACGAAUUCGUACCAUAGAGAGGUGAACCGCUCACCGAGAUCGGAAGAGCACACGU | 18.2 ± 0.8 nM |
| target 1 del13,del15 (mixed) RNA 1: CACCCGUGCAAAAAUGCAGGGGUCUAAAACUGAGCGGAUAACCUCUCUAUGG RNA 2: GGGAAUGGAUCCACAUCUACGAAUUCGUACCAUAGAAGUUAUCCGCUCACCGAGAUCGGAAGAGCACACGU | 30 ± 5 nM |
| target 1 A16G,U19C (mixed) RNA 1: CACCCGUGCAAAAAUGCAGGGGUCUAAAACUGAGCGGAUAACCUCUCUAUGG RNA 2: GGGAAUGGAUCCACAUCUACGAAUUCGUACCACAGGGAGGUUAUCCGCUCACCGAGAUCGGAAGAGCACACGU | 78 ± 33 nM |
| target 1 G5U,G15C (mixed) RNA 1: CACCCGUGCAAAAAUGCAGGGGUCUAAAACUGAGCGGAUAACCUCUCUAUGG RNA 2: GGGAAUGGAUCCACAUCUACGAAUUCGUACCAUAGACAGGUUAUCCUCUCACCGAGAUCGGAAGAGCACACGU | 46 ± 9 nM |
| target 1 U3G,U10G (mixed) RNA 1: CACCCGUGCAAAAAUGCAGGGGUCUAAAACUGAGCGGAUAACCUCUCUAUGG RNA 2: GGGAAUGGAUCCACAUCUACGAAUUCGUACCAUAGAGAGGUGAUCCGCGCACCGAGAUCGGAAGAGCACACGU | 35.2 ± 2.9 nM |
| target 1 insU 3' of 22,insA 3' of 10 (mixed) RNA 1: CACCCGUGCAAAAAUGCAGGGGUCUAAAACUGAGCGGAUAACCUCUCUAUGG RNA 2: GGGAAUGGAUCCACAUCUACGAAUUCGUACUCAUAGAGAGGUUAAUCCGCUCACCGAGAUCGGAAGAGCACACGU | 43 ± 5 nM |
| target 1 insC 3' of 3,insU 3' of 2 (mixed) RNA 1: CACCCGUGCAAAAAUGCAGGGGUCUAAAACUGAGCGGAUAACCUCUCUAUGG RNA 2: GGGAAUGGAUCCACAUCUACGAAUUCGUACCAUAGAGAGGUUAUCCGCUCCUACCGAGAUCGGAAGAGCACACGU | 37 ± 5 nM |
| target 1 A9U,G12C (mixed) RNA 1: CACCCGUGCAAAAAUGCAGGGGUCUAAAACUGAGCGGAUAACCUCUCUAUGG RNA 2: GGGAAUGGAUCCACAUCUACGAAUUCGUACCAUAGAGAGCUUUUCCGCUCACCGAGAUCGGAAGAGCACACGU | ~46 nM |
| target 1 insU 3' of 18,insA 3' of 15 (mixed) RNA 1: CACCCGUGCAAAAAUGCAGGGGUCUAAAACUGAGCGGAUAACCUCUCUAUGG RNA 2: GGGAAUGGAUCCACAUCUACGAAUUCGUACCAUAUGAGAAGGUUAUCCGCUCACCGAGAUCGGAAGAGCACACGU | 20.5 ± 2.5 nM |
